This passage reports Km, kcat and kcat/Km results from PMC6431053, “Enzyme kinetics of dUTPase from the planarian Dugesia ryukyuensis” (BMC Research Notes, 2019).

Substrate in series [1]: Cc1cn([C@H]2C[C@H](O)[C@@H](COP(=O)(O)OP(=O)(O)OP(=O)(O)O)O2)c(=O)[nH]c1=O
Put plainly: purified protein. Format: biochemical, Dugesia ryukyuensis. The following applies: 5 mM MgCl2, 100 mM KCl, 0.25 mM Bicine, pH 8.2, 100 µM nucleotide, 4–6 µM enzyme, n = 3.

Substrate in series [2]: O=c1ccn([C@H]2C[C@H](O)[C@@H](COP(=O)(O)OP(=O)(O)OP(=O)(O)O)O2)c(=O)[nH]1
Description: purified protein. In kind it is biochemical, Dugesia ryukyuensis. Particulars: 5 mM MgCl2, 100 mM KCl, 0.25 mM Bicine, pH 8.2, 25 °C, 10 µM dUTP, n = 7, kcat assumes three active sites per trimer, 25.0 °C.

B1: Dr-dUTPase (Dugesia ryukyuensis; R66K) (protein)
chain: MSALKVLRFKKLSENATVPSRGSVLAAGFDLCSAENCVIPARGKQLVKTDIQISLPEGCYGRVAPKSGLALKHFIDVGAGVIDQDYRGNVGIVMFNFSENEFPISKGDRIAQLICERIYTPELLECESLDETERGEGGYGSTGINNSSQKNGH
notes: full-length 153 aa ORF, codon-optimized, pET-15b, E. coli BL21(DE3); His-tag cut by thrombin, N-terminal GSH left; 156 aa, 16,807 Da; R66K (G197A) removes internal thrombin site
Take B1: in “purified protein [1]”, the Km (as a rule, the substrate concentration at which the rate is half of its maximum) is recorded as 1.1 × 10^2 ± 7.2 μM; the kcat (as a rule, the maximal rate divided by the concentration of active sites) is 1.4 ± 0.3 s⁻¹; the kcat/Km (usually the second-order rate constant that governs catalysis at low substrate concentration) came to 13000 ± 2800 M⁻¹ s⁻¹. Also, in the series “purified protein [2]”, the Km came to 4.0 ± 0.4 µM, the kcat is 34 s⁻¹ and the kcat/Km was 8.5e+06 ± 1.1e+06 M⁻¹ s⁻¹.
